{"source": "paper PMC6719061", "key": {"[1]": {"target": "Lst-ABD, recombinant fusion protein with lysostaphin at the N-terminus and the albumin-binding domain from streptococcal protein G at the C-terminus (not stated | Streptococcus sp.)"}, "[2]": {"target": "Lst-ABD, recombinant fusion protein with lysostaphin at the N-terminus and the albumin-binding domain from streptococcal protein G at the C-terminus (not stated | Streptococcus sp.)", "assay": "photonic crystal-based biosensor (EVA 2.0); Lst-ABD immobilised covalently by amine coupling (EDC/NHS) on a carboxylate-derivatized photonic crystal chip; albumin in PBST (PBS + 0.02% Tween-20, pH 7.4) pumped through the flow cell, ~5 min association, ~5 min dissociation; RSA 250, 42, 7 and 1.2 µg/mL, BSA 1 mg/mL; heterogeneous binding model with two independent sites, koff1 = koff2 fixed"}}}
{"substance": "rat serum albumin (from UniProt P02770 25-608) (natural protein)", "values": [{"measurement": "rate of clearing of S. aureus ATCC 29213 cell suspension (turbidimetry, OD 550 nm) by Lst-ABD in the presence of 100 µg/mL RSA, relative to lysostaphin", "setting": "[1]", "value": 25, "unit": "%"}, {"measurement": "KD1 (high-affinity site)", "setting": "[2]", "value": 2.3, "unit": "nM"}, {"measurement": "KD2 (low-affinity site)", "setting": "[2]", "value": 20, "unit": "nM"}, {"measurement": "koff", "setting": "[2]", "value": "5.9e-05", "unit": "s⁻¹"}, {"measurement": "kon1 (high-affinity site)", "setting": "[2]", "value": 26000, "unit": "M⁻¹ s⁻¹"}, {"measurement": "kon2 (low-affinity site)", "setting": "[2]", "value": 3000, "unit": "M⁻¹ s⁻¹"}]}
